The values below come from PMC10215022.

The target of experiment [1] is SARS-CoV-2 Omicron (B.1.1.529) spike protein RBD, His-tagged (SARS-CoV-2 Omicron (B.1.1.529)) (UniProt P0DTC2). As to the kind of experiment: SPR. On the technique in general: In SPR one partner is held on a chip, and binding of the other changes the refractive index at the surface.
Experiment [2] deals with SARS-CoV-2 Delta (B.1.617.2) spike protein RBD, His-tagged (SARS-CoV-2 Delta (B.1.617.2)) (UniProt P0DTC2). The experiment in a line: SPR.

For the substance “decavalent IgM ACE2 decoy (from UniProt Q9BYF1;P01591) (Fc fusion)”, in experiment [1], the Kd (in general, the free concentration of one partner at which half of the binding sites on the other are occupied at equilibrium, for simple one-to-one binding) amounted to 2.4 nM; the koff (usually the first-order rate constant of dissociation) was 0.00036 s⁻¹; the kon (in general, a measure of how fast the partners come together) is 150000 M⁻¹ s⁻¹. In experiment [2], this substance yielded a Kd of 0.49 nM, an off-rate constant (koff) of 0.00013 s⁻¹ and a kon of 260000 M⁻¹ s⁻¹.
